# Data reported in patent US20060223116.
# Experiments:
# [1] = system: T1, truncated GST-fusion T-bet protein, C-terminal fragment
# T1 sequence (Q9UL17 whole entry, species assumed, looked up): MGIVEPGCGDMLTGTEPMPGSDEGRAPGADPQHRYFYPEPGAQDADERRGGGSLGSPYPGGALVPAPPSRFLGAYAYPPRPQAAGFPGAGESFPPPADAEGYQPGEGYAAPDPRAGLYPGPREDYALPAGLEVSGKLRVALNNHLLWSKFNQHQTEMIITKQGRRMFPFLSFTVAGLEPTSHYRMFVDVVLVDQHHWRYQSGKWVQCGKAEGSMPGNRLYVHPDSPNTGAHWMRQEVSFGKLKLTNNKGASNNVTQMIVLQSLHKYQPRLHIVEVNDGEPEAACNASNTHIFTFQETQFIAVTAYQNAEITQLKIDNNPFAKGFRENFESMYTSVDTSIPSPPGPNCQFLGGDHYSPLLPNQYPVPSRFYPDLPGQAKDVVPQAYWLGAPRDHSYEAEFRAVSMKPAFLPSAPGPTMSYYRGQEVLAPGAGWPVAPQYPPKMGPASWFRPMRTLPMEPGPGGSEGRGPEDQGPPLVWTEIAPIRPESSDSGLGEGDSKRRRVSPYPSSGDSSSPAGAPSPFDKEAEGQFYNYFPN
# [2] = system: T2, truncated GST-fusion T-bet protein, N-terminal fragment
# T2 sequence (Q9UL17 whole entry, species assumed, looked up): T1 sequence (Q9UL17 whole entry, species assumed, looked up)
substance,measurement,setting,value
"RLK-MYC (resting lymphocyte kinase, MYC-tagged)","in vitro kinase assay (32P-ATP, autoradiography)",[1],"both the N and C terminal fragments but not the DNA binding domain, could be phosphorylated by the Tec kinases, ITK and RLK"
same,"in vitro kinase assay (32P-ATP, autoradiography)",[2],"both the N and C terminal fragments but not the DNA binding domain, could be phosphorylated by the Tec kinases, ITK and RLK"
